Patent US8008542B2, “Compositions, cells, and plants that include BKI1, a negative regulator of BRI1-mediated BR signaling” (The Salk Institute for Biological Studies, priority 2007, dated 2011)
Each block holds one molecule with its values, some of them ahead of it.

Assays:
endogenous BRI1 = biological target: T1, endogenous BRI1 (Arabidopsis thaliana, UniProt O22476); assay: Immunoprecipitation from BKI1-FLAG plants; assay type: binding; conditions: immunoprecipitation with anti-FLAG
T1 construct: from tissue; host or cells: short-day grown seedlings of Col-0 transgenic plants expressing BKI1-FLAG
T1 sequence (O22476 24-1196): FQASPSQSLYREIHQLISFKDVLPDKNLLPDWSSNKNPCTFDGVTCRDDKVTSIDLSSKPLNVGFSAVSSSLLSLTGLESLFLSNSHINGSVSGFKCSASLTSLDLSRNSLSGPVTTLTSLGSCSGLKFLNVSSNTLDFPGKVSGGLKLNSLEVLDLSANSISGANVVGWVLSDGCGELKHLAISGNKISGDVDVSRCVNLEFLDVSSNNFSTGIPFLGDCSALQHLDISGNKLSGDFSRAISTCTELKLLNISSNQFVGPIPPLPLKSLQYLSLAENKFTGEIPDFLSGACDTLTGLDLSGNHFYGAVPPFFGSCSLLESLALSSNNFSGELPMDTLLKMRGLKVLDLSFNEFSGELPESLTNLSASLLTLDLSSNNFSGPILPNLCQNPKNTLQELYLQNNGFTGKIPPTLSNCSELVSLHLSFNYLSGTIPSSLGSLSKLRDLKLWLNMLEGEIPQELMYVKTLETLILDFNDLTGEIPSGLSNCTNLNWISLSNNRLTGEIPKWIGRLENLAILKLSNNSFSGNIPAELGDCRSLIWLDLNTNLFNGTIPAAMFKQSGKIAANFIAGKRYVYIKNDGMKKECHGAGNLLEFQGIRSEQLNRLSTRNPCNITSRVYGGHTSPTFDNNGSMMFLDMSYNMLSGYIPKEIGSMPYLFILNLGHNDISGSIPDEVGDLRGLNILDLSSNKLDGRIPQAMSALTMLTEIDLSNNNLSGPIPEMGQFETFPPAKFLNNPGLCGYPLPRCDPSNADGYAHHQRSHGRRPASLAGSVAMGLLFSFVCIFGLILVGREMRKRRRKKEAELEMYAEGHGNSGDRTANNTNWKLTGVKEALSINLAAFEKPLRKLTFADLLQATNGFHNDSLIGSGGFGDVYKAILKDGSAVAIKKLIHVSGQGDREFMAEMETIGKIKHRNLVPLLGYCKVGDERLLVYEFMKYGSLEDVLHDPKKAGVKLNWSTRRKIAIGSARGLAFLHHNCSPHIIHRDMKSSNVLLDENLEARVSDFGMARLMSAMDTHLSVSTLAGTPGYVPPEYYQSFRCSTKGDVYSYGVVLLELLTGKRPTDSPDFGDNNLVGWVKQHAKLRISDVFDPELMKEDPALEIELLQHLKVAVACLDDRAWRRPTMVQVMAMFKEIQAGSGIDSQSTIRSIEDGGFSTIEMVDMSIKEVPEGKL
Description: Short-day grown seedlings of Col-0 and transgenic plants containing BKI1-FLAG were ground to a fine powder in liquid nitrogen, and solubilized with 2× extraction buffer (100 mM Tris-HCl pH 7.5, 300 mM NaCl, 2 mM EDTA, 1% Triton, 10% glycerol, and protease inhibitor). The extracts were centrifuged at 5,000×g for 10 min, and the resultant supernatant was then spun at 100,000×g for 90 min at 4° C. to remove membrane fractions. The supernatant was incubated with pre-washed anti-FLAG M2 agarose gel (Sigma) for three hours at 4° C., and the agarose gel was washed five times with TBS Buffer containing 0.02% Tween 20. The immunoprecipitates were eluted with 1×SDS sample buffer by boiling for 5 min, separated on a 4-20% Novex Tris-Glycine SDS-PAGE gel (Invitrogen), transferred to PVDF membrane (Millipore), and detected with either anti-BRI1 antibody for endogenous BRI1 or monoclonal anti-FLAG M2 (Sigma) for BKI1-FLAG. Signals were visualized using the Odyssey Infrared Imaging system (LI-COR Biosciences Inc.).

[1] = biological target: T2, interaction between the kinase domains of BRI1 and BAK1 (Arabidopsis thaliana, UniProt O22476); assay: GST pull-down of 35S-BRI1-KD-HIS by GST-BAK1-KD in vitro; assay type: binding; conditions: 10 μM of MBP-BKI1, five replicates, p=0.000013
T2 construct: His (C); made in house; host or cells: BRI1-KD-HIS: TNT T7 coupled reticulocyte lysate (Promega)
T2 sequence (O22476 883-1158 limits assumed): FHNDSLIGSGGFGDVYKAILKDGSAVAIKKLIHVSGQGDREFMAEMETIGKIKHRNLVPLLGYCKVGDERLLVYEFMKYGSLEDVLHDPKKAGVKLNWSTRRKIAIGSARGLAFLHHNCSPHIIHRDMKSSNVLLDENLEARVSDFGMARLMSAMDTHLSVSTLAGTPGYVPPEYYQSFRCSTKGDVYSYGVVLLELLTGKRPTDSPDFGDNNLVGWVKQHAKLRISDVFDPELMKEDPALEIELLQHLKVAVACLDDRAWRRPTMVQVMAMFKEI
Description: Seedlings were grown on MS medium containing 1 μM of BRZ220. The time of BL treatment is indicated. Top panels: BKI1-YFP; Lower panels: myriBKI1-YFP. […] Immunoblots with anti-GFP show levels of myriBKI1-YFP and BKI1-YFP. Bottom band: loading control. […] The total ^35S-Met labeled BRI1-KD-HIS co-precipitated by GST-BAK1-KD was defined as “1”. Five replicates were conducted. Error bars indicate standard error. 1, GST-BAK1-KD±35S-BRI1-KD-HIS; 2, GST-BAK1-KD+35S-BRI1-KD-HIS+10 μM of MBP; 3, GST-BAK1-KD+35S-BRI1-KD-HIS+10 μM of MBP-BKI1. […] Without BL, BRI1 kinase is kept in a basal state by both its own carboxyl terminal domain and by an interaction with BKI1. Brassinosteroid binding to the extracellular domain of BRI1 induces a conformational change of the kinase domain, leading to the phosphorylation of the C-terminal domain of BRI1 and BKI1, the dissociation of BKI1 from the plasma membrane, and the release of autoinhibition of BRI1. These events lead to the full activation of BRI1 and its association with BAK1 or other substrates. Plasma membrane-dissociated BKI1 may also regulate other unknown components in the brassinosteroid signaling cascade. BSU1 is a nuclear serine/threonine phosphatase involved in the dephosphorylation of BES1 (27). […]

interaction with endogenous BRI1 in vivo (endogenous BRI1): interacted
B1: BKI1-FLAG: BKI1 with three copies of FLAG fused at the C-terminal end (protein)
chain: METNLQQVKNSSQTFSEKQNPKQEASPSPISSTCSSPSHDFSFTISLQPLSSSSKHISPTLRSPSKTTSSYQQTDPFAVDLSPADEIFFHGHLLPLHLLSHLPVSPRTSTGSYNDGFTLPVKDILPDQPTNNNNNTENAITNISTEAKDDNTEDKAEGEIRVKTKPIKSFSLFGLSKWRKGFESNEREQEQQQQKIKKPMSLDLSHAVKKYIRMLFQKRGNGTQFWNRRQTSSYSFSSSLMGPNGNSKTMINGSYNKRDLIRGRRGELFSAPASMRTSPTNSGHLRVSTAGLSSSSGSTSSSSSDSTMEELQAAIQAAIAHCKNSSAVDRDDKVKDSDYKDDDDKVKLDYKDDDDKVKLDYKDDDDKVKL

inhibition of the interaction between the kinase domains of BRI1 and BAK1 [1]: approximately 62%
B2: MBP-BKI1: BKI1-maltose binding protein fusion (N-terminal MBP) (protein)
chain: METNLQQVKNSSQTFSEKQNPKQEASPSPISSTCSSPSHDFSFTISLQPLSSSSKHISPTLRSPSKTTSSYQQTDPFAVDLSPADEIFFHGHLLPLHLLSHLPVSPRTSTGSYNDGFTLPVKDILPDQPTNNNNNTENAITNISTEAKDDNTEDKAEGEIRVKTKPIKSFSLFGLSKWRKGFESNEREQEQQQQKIKKPMSLDLSHAVKKYIRMLFQKRGNGTQFWNRRQTSSYSFSSSLMGPNGNSKTMINGSYNKRDLIRGRRGELFSAPASMRTSPTNSGHLRVSTAGLSSSSGSTSSSSSDSTMEELQAAIQAAIAHCKNSSAVDRDDKVKDS
modifications: left off: large carriers
